Test results taken from article PMC3240954 (Scientific Reports, 2011).

B1: -22/A (dsDNA)
DNA 1: CGTCATTTGGAGGTTTTGGGACAACACGCCCCTAAACTCGCCCT
DNA 2: AGGGCGAGTTTAGGGGCGTGTTGTCCCAAAACCTCCAAATGACG
B2: His-tagged WhiG (H6-WhiG) (natural protein, UniProt P17211 1-280, looked up)
chain: MPQHTSGSDRAAIPPAARDGGSVRPPAPSTLDELWRSYKTTGDERLREQLILHYSPLVKYVAGRVSVGLPPNVEQADFVSSGVFGLIDAIEKFDVDREIKFETYAITRIRGAMIDELRALDWIPRSVRQKARNVERAYATLEARLRRTPSESEVAVEMGIAVEDLHAVFSQLSLANVVALEELLHAGGEGGGRLSLMDTLEDTAADNPVEVAEDRELRRLLARAINTLPEREKTVVTLYYYEGLTLAEIGNVLGVTESRVSQIHTKSVLQLRAKLAGFGR

How the values were obtained:
H6-WhiA full-length = H6-WhiA full-length (Streptomyces coelicolor, UniProt Q9Z515 1-328); assay: competition
[1] = target: WhiA (S. coelicolor), full-length, untagged (S. coelicolor, UniProt Q9Z515 1-328); assay: pull-down
WhiA (S. coelicolor), full-length, untagged, sequence (Q9Z515 whole entry): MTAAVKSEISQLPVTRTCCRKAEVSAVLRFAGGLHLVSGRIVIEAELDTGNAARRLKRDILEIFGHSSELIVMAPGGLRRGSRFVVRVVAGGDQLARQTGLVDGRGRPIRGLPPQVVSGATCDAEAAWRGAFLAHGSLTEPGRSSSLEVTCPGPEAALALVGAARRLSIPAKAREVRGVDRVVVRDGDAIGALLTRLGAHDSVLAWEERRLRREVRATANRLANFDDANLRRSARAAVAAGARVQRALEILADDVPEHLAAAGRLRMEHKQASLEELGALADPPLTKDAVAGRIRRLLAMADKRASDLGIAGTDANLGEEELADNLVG

H6-WhiA full-length, sequence (Q9Z515 whole entry): as above

Binder | binding result (H6-WhiA full-length) | binding result [1]
B1 | binds | 
B2 |  | binds
